Experimental data taken from publication doi:10.1101/2024.07.18.604040.

Molecular target: recombinant human λS Full-Length free light chain (rλS-LC) (human)

stoichiometry N: 2
Substance: recombinant human λS Full-Length free light chain (rλS-LC) (natural protein)
